{"source": "paper PMC13292882", "about": "(2025)", "key": {"[1]": {"target": "Proliferating Cell Nuclear Antigen (PCNA) (UniProt P12004 1-261)", "sequence (P12004 whole entry)": "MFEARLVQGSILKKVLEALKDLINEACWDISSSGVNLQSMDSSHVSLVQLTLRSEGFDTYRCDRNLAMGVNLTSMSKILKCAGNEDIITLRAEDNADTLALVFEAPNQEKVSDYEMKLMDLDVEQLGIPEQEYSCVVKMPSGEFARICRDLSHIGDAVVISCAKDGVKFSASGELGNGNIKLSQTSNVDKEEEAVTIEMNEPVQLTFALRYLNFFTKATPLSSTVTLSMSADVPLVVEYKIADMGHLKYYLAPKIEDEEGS", "experiment": "FP"}, "[2]": {"target": "RPA32 winged-helix domain (RPA32-WH) (amino acids 202-270) (UniProt P15927 202-270)", "sequence (P15927 202-270)": "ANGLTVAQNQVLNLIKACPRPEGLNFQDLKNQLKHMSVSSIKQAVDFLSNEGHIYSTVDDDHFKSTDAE", "experiment": "FP"}}, "note": "No end group written: not given here.", "data": [{"binder": "SAVLQKKITDYFHPKK (also: fluorescein-labeled, position not given here)", "note": "[Pogo-Ligase peptide]", "values": [{"measurement": "Kd", "setting": "[1]", "value": 0.051, "unit": "µM"}]}, {"binder": "LTEEQRKKIEENRQKALARRAEKLLA (also: fluorescein-labeled, position not given here)", "note": "[SMARCAL peptide]", "values": [{"measurement": "Kd", "setting": "[2]", "value": 13.5, "unit": "µM"}]}]}
